Measured values as given in publication PMC5350102.
Like-named read-outs stand apart in the source and are kept apart here. Blank lines part the entries; values can stand above or below the substance they belong to.

Tests used:
[1] = target: GST-nNOS[1–155] (human) (UniProt P29475); assay: pull-down; solid-phase no-wash binding assay: 5 μl beads bound to 1 μg GST-fused nNOS protein (or GST for background) rotated with His-TAT-NOS1AP peptides for 1 h at 4°C; unbound removed by centrifugation in filter plates, no wash; bound peptide quantified by fluorescent immunoblot; GST background subtracted; 1-site quadratic fit
[2] = target: His-nNOS[1–155] (human) (UniProt P29475); assay: fluorescence polarisation; competition FP: 1 μM F-GDLV, 4 μM His-nNOS(1–155), increasing competitor; approximate Kc (dissociation constant of the competitor, affinity for the nNOS PDZ pocket) from the single-site competition formula
[3] = target: nNOS (UniProt P29475); assay: solid-phase no-wash assay; settings: cited from earlier work
[4] = target: nNOS (UniProt P29475); settings: cited from earlier work

- Kd [1]: 100 µM
Substance: His-TAT-NOS1AP[400–503] F431A, denatured (from UniProt O75052 400-503) (domain or fragment)

- Ki [2]: > 10 µM
Substance: NOS1AP[400–503] F431A cleaved from GST (from UniProt O75052 400-503) (domain or fragment)

Substance: TAT-NOS1AP 400-506 (from UniProt O75052)
- Kd [3]: 0.75 µM

Substance: NOS1AP-9C
- Kd [4]: > 600 µM
